Reference: patent US20150258192A1, “COMPOSITIONS AND METHODS FOR PREVENTING OR TREATING CHRONIC LUNG ALLOGRAFT DYSFUNCTION (CLAD) AND IDIOPATHIC PULMONARY FIBROSIS (IPF)” (priority 2014, published 2015)
No end group written: not given here.

Legend:
Experiment in all cases: Kinase Profiling Assay
Format in all cases: biochemical
Conditions in all cases: peptide 100 μM
Ros(h) = Ros(h) (Homo sapiens, UniProt P08922)
Outline: (§1)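 In this 266-kinase specificity panel, every measurement was duplicated. Transfer of labeled phosphate from ATP to a cationic substrate was quantified after the substrate adhered to an anionic filter membrane and was scintillation-counted, then related to a full-activity control.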

DRAK1(h) = target: T1, DRAK1(h) (Homo sapiens, UniProt Q9UEE5)
T1 sequence (Q9UEE5 1-414): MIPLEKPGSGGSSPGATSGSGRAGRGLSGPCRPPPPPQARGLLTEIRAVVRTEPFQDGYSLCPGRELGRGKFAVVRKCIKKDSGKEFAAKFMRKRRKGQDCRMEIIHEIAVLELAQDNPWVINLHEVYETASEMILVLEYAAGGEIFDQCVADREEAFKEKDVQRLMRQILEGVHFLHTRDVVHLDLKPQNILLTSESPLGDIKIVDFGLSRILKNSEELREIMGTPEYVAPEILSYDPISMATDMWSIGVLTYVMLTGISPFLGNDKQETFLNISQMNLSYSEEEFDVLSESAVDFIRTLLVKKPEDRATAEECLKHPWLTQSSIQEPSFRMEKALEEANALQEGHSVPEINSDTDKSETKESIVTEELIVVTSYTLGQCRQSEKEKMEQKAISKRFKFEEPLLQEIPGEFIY
Outline: as §1

SRPK1(h) = target: T2, SRPK1(h) (Homo sapiens, UniProt Q96SB4)
T2 construct: purchased Millipore
T2 sequence (Q96SB4 whole entry): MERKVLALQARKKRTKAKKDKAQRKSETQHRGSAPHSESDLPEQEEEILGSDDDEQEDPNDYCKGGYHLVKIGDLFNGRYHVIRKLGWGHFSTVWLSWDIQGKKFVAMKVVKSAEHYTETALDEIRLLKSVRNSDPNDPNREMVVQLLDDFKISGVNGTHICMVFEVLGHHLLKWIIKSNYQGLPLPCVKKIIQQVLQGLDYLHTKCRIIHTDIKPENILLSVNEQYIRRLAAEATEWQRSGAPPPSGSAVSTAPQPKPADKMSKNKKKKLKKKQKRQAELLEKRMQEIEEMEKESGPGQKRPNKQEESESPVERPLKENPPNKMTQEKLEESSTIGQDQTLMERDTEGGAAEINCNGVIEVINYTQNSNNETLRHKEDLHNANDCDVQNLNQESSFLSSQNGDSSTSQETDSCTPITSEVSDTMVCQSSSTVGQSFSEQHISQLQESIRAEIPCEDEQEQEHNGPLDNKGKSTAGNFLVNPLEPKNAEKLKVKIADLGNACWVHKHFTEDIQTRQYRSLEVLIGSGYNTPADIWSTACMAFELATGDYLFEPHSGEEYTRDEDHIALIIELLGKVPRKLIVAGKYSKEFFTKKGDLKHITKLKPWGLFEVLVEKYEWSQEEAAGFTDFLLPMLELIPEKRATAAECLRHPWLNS
Outline: as §1

Fms(Y969C)(h) = Fms(Y969C)(h) (Homo sapiens, UniProt P07333, Y969C)
Outline: as §1

ROCK-I(h) = ROCK-I(h) (Homo sapiens, UniProt Q13464)
Outline: as §1

WNK3(h) = WNK3(h) (Homo sapiens, UniProt Q9BYP7)
WNK3(h), sequence (Q9BYP7 whole entry): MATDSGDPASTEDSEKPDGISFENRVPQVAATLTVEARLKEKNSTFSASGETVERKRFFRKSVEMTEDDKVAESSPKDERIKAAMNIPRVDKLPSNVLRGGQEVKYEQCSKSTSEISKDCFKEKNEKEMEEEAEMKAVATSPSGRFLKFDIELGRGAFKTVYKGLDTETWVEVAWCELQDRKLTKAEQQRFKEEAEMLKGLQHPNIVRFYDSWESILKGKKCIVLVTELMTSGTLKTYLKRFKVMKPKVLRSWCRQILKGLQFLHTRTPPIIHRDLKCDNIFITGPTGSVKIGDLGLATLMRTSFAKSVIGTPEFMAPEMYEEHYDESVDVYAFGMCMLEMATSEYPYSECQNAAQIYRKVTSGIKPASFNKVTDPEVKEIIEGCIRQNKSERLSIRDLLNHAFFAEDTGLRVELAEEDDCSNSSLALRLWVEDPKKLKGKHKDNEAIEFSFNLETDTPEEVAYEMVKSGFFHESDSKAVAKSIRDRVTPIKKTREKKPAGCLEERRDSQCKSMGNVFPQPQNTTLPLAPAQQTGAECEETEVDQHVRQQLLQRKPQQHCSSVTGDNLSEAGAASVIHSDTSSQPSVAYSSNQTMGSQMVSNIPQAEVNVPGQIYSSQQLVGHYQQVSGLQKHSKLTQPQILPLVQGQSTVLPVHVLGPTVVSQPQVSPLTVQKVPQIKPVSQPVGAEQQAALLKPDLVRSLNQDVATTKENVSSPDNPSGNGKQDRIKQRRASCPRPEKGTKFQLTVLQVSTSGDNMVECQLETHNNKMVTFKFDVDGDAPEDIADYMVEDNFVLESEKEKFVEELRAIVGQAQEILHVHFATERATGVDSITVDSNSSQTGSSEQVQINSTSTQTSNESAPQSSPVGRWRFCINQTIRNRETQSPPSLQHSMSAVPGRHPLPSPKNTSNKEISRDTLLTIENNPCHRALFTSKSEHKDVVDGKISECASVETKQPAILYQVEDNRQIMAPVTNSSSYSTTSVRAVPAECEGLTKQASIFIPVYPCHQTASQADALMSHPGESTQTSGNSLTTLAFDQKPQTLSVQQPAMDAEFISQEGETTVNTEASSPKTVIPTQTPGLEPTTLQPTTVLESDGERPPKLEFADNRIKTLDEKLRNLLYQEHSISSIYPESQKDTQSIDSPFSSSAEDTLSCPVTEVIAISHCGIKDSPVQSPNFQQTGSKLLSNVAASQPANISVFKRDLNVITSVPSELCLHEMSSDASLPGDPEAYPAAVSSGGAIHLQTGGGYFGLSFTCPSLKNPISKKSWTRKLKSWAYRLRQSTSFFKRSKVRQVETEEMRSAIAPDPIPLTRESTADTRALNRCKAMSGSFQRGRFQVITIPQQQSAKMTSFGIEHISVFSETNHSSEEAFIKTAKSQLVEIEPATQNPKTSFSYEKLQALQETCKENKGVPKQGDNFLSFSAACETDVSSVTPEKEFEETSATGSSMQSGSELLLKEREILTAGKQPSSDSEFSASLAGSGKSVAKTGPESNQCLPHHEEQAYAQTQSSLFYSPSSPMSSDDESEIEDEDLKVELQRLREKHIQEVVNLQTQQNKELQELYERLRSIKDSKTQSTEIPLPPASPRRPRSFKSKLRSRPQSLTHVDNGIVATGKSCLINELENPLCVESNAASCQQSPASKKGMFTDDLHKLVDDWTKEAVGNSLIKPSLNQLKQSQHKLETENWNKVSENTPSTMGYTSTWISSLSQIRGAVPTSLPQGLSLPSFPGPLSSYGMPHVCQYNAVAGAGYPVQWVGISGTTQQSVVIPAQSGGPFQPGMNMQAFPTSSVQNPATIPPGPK
Outline: as §1

CDK1/cyclinB(h) = CDK1/cyclinB(h) (Homo sapiens, UniProt P06493)
Outline: as §1

EphB1(h) = target: T3, EphB1(h) (Homo sapiens, UniProt P54762)
T3 sequence (P54762 18-984): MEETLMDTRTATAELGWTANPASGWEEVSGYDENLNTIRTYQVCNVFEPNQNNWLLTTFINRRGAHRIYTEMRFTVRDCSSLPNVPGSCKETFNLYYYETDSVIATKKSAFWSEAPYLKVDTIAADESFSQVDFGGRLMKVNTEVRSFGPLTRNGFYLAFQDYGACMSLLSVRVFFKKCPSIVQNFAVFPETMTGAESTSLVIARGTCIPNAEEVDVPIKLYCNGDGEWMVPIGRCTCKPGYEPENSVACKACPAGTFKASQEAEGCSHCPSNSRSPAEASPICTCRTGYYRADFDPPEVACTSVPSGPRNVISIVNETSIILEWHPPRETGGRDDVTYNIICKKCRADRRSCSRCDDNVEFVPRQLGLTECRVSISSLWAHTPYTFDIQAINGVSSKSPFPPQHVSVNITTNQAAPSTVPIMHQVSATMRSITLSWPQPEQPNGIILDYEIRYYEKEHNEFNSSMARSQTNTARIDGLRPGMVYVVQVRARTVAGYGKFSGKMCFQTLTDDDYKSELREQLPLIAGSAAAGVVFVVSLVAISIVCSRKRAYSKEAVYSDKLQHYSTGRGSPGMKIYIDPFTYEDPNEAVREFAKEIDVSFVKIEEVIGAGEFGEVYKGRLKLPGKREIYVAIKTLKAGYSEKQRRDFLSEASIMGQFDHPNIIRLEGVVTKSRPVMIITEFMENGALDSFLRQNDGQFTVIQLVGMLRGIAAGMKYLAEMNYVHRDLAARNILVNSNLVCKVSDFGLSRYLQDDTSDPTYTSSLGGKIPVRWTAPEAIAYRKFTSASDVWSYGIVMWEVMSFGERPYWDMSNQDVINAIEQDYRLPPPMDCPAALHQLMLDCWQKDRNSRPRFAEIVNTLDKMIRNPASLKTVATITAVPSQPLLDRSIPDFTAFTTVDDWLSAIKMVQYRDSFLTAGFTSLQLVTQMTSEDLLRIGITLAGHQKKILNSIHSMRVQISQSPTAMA
Outline: as §1

CHK2(I157T)(h) = CHK2(I157T)(h) (Homo sapiens, UniProt O96017, I157T)
CHK2(I157T)(h), sequence (O96017 whole entry I157T): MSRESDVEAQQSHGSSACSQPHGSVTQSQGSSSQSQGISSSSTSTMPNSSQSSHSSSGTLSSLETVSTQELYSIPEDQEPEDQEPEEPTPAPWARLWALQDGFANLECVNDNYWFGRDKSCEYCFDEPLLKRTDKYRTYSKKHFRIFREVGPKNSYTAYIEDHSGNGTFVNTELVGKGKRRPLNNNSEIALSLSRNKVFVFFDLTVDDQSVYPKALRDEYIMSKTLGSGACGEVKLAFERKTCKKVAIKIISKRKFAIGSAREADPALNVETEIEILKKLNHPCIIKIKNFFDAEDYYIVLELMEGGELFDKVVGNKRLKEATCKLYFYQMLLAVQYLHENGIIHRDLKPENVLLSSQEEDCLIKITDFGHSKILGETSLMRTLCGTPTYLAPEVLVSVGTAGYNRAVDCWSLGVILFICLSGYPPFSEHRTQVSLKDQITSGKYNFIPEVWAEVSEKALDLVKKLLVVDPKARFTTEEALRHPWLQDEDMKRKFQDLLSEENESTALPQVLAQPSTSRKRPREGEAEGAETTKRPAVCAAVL
Outline: as §1

ErbB4(h) = ErbB4(h) (Homo sapiens, UniProt Q15303)
ErbB4(h), sequence (Q15303 26-1308): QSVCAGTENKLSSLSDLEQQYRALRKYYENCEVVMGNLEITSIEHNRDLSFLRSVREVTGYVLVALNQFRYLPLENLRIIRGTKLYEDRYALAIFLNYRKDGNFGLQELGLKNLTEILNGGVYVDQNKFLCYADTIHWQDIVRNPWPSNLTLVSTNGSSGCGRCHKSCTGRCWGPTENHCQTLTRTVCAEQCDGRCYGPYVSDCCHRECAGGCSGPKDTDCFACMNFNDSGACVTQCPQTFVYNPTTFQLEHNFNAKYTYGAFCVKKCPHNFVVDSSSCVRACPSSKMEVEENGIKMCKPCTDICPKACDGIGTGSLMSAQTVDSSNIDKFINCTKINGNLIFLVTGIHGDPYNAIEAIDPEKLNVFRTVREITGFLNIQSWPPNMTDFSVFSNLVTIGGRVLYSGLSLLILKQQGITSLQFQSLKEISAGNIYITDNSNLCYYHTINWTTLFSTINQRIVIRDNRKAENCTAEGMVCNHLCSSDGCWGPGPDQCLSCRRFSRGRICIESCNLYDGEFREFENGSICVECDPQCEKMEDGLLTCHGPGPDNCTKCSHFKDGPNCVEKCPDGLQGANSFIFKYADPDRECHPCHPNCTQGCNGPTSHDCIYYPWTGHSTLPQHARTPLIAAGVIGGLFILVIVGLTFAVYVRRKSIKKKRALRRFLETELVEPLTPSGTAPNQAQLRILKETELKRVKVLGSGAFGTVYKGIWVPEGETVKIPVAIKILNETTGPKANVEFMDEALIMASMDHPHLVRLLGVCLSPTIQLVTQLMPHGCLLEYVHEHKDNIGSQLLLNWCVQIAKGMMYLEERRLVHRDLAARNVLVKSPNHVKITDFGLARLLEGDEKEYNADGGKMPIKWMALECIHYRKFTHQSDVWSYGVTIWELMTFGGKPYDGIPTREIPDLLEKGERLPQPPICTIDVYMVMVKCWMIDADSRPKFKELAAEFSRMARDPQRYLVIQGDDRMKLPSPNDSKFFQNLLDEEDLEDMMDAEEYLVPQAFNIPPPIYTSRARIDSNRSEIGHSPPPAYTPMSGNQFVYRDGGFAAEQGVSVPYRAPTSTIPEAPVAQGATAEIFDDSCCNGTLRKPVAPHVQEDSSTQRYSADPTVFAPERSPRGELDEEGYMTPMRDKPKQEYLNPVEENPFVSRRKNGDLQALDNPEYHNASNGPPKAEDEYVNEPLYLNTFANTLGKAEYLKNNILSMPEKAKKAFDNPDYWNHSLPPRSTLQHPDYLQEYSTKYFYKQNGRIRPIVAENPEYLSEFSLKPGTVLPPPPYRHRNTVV
Outline: as §1

MEK1(h) = target: T4, MEK1(h) (Homo sapiens, UniProt Q02750)
T4 construct: purchased Millipore
Outline: as §1

IRR(h) = target: T5, IRR(h) (Homo sapiens, UniProt P14616)
T5 construct: purchased Millipore
Outline: as §1

IGF-1R(h), activated = target: T6, IGF-1R(h), activated (Homo sapiens, UniProt P08069)
T6 construct: purchased Millipore
T6 sequence (P08069 959-1367 limits assumed): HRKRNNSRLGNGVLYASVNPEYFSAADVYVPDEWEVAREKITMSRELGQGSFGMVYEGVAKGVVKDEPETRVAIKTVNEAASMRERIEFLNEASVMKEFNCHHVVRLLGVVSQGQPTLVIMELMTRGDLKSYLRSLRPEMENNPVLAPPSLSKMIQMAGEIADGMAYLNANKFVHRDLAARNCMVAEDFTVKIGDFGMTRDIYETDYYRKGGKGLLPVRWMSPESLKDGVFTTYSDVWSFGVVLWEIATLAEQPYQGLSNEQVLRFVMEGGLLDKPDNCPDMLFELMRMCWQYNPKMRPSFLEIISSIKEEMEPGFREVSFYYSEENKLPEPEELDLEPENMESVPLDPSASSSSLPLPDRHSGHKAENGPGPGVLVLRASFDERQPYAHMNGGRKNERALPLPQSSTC
Outline: as §1

CDK9/cyclin T1(h) = CDK9/cyclin T1(h) (Homo sapiens, UniProt P50750)
Outline: as §1

Pim-1(h) = Pim-1(h) (Homo sapiens, UniProt P11309)
Pim-1(h), sequence (P11309 whole entry): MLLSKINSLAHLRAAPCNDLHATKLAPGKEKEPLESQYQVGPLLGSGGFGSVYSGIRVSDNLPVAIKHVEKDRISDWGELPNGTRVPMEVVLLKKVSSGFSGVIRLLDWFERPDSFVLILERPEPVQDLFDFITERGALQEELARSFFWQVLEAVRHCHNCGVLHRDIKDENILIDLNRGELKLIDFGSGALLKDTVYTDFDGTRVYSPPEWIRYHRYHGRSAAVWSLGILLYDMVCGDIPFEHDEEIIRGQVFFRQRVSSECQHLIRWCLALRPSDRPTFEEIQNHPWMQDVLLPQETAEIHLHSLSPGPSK
Outline: as §1

Sequence | % activity (Ros(h)) [%] | % activity (DRAK1(h)) [%] | % activity (SRPK1(h)) [%] | % activity (Fms(Y969C)(h)) [%] | % activity (ROCK-I(h)) [%] | % activity (WNK3(h)) [%] | % activity (CDK1/cyclinB(h)) [%] | % activity (EphB1(h)) [%] | % activity (CHK2(I157T)(h)) [%] | % activity (ErbB4(h)) [%] | % activity (MEK1(h)) [%] | % activity (IRR(h)) [%] | % activity (IGF-1R(h), activated) [%] | % activity (CDK9/cyclin T1(h)) [%] | % activity (Pim-1(h)) [%]
FAKLAARLYRKALARQLGVAA [MMI-0300] | 95 | 14 | 90 | 72 | 79 | 77 | 73 | 44 | 43 | 40 | 77 | 8 | 80 | 91 | 8
HRRIKAWLKKIKALARQLGVAA (Mammal) [MMI-0500] | 150 | 8 | 80 |  | 17 | 9 | 57 | 37 | 3 | 2 | 21 | 10 | 45 | 6 | 0
KAFAKLAARLYRKALARQLGVAA [MMI-0400] | 99 | 14 | 96 | 91 | 73 | 74 | 74 | 58 | 41 | 0 | 77 | 8 | 77 | 235 | 7
YARAAARQARAKALARQLGVAA [MMI-0100] |  | 47 | 69 | 126 |  | 100 |  | 99 | 97 | 73 |  | 85 | 126 |  | 
YARAAARQARAKALNRQLGVA (Mammal) [MMI-0200] | 86 | 34 | 93 | 88 |  | 97 |  | 95 | 85 | 82 |  | 69 | 94 |  | 18
